Each block holds one binder with its values, some of them ahead of it.
Columns and labels:
human CCR8 [1] = molecular target: T1, human CCR8 (human, UniProt P51685 1-355); assay: flow blocking, PBMC CCR8+CD3+; competitor PE-AB12
T1 construct: Native CCR8 on human PBMC (CCR8+ CD3+ or CCR8+ CD4+ lymphocytes); also called chemokine (C-C motif) receptor 8
Protocol: (§1) For blocking studies, 100 μL of the cell suspension were incubated with 10 μg purified isotype control, AB1, AB2, AB3, AB4, AB5, AB8, AB9, AB10, AB11, AB12, AB13, AB14, AB15, and Commercial ABI antibodies, or isotype control, as blocking agents.
(§2) After incubation with the blocking agent, the cells were incubated with 0.25 μg of the indicated PE-conjugated antibody plus anti-human CD4 APC or anti-human CD3 for another 15 minutes in the dark and then washed 2 times with Cell Staining Buffer, and acquired in a FACSCanto II flow cytometer (BD Biosciences); the data was analyzed using FCS Express (De Novo Software); MFI correspond to the CCR8+ CD4+ lymphocytes or CCR8+ CD3+ lymphocytes.
(§3) Percentage original MFI was calculated by dividing the MFI of samples blocked with AB1, AB2, AB3, AB4, AB5, AB6, AB7, AB8, AB9, AB10, AB11, AB12, AB13, AB14, AB15, and Commercial ABI antibodies, by the MFI of samples blocked with the corresponding isotype control. This value was subtracted from 100 to get a blocking percentage. The formula is shown below: […]

human CCR8 [2] = molecular target: T1, human CCR8; assay: flow blocking, PBMC CCR8+CD3+; competitor PE-AB15
Protocol: as §1, §2, §3

human CCR8 [3] = molecular target: T1, human CCR8; assay: flow blocking, PBMC CCR8+CD4+; competitor PE-AB5
Protocol: as §1, §2, §3

human CCR8 [4] = molecular target: T1, human CCR8; assay: flow blocking, PBMC CCR8+CD4+; competitor PE-AB15
Protocol: as §1, §2, §3

human CCR8 [5] = molecular target: T1, human CCR8; assay: flow blocking, PBMC CCR8+CD3+; competitor PE-AB5
Protocol: as §1, §2, §3

human CCR8 [6] = molecular target: T1, human CCR8; assay: flow blocking, PBMC CCR8+CD3+; competitor PE-AB11
Protocol: as §1, §2, §3

human CCR8 [7] = molecular target: T1, human CCR8; assay: flow blocking, PBMC CCR8+CD3+; competitor PE-AB13
Protocol: as §1, §2, §3

human CCR8 [8] = molecular target: T1, human CCR8; assay: flow blocking, PBMC CCR8+CD4+; competitor PE-AB11
Protocol: as §1, §2, §3

human CCR8 [9] = molecular target: T1, human CCR8; assay: flow blocking, PBMC CCR8+CD3+; competitor PE-AB6
Protocol: as §1, §2, §3

human CCR8 [10] = molecular target: T1, human CCR8; assay: flow blocking, PBMC CCR8+CD4+; competitor PE-AB13
Protocol: as §1, §2

human CCR8 [11] = molecular target: T1, human CCR8; assay: flow blocking, PBMC CCR8+CD4+; competitor PE-AB3
Protocol: as §1, §2, §3

human CCR8 [12] = molecular target: T1, human CCR8; assay: flow blocking, PBMC CCR8+CD3+; competitor PE-L263G8
Protocol: as §1, §2, §3

human CCR8 [13] = molecular target: T1, human CCR8; assay: flow blocking, PBMC CCR8+CD4+; competitor PE-AB14
Protocol: as §1, §2

human CCR8 [14] = molecular target: T1, human CCR8; assay: flow blocking, PBMC CCR8+CD4+; competitor PE-AB12
Protocol: as §1, §2, §3

human CCR8 [15] = molecular target: T1, human CCR8; assay: flow blocking, PBMC CCR8+CD4+; competitor PE-AB6
Protocol: as §1, §2

human CCR8 [16] = molecular target: T1, human CCR8; assay: flow blocking, PBMC CCR8+CD4+; competitor PE-AB2
Protocol: as §1, §2, §3

human CCR8 [17] = molecular target: T1, human CCR8; assay: flow blocking, PBMC CCR8+CD3+; competitor PE-433H
Protocol: as §1, §2, §3

human CCR8 [18] = molecular target: T1, human CCR8; assay: flow blocking, PBMC CCR8+CD4+; competitor PE-433H
Protocol: as §1, §2

human CCR8 [19] = molecular target: T1, human CCR8; assay: flow blocking, PBMC CCR8+CD4+; competitor PE-AB10
Protocol: as §1, §2, §3

human CCR8 [20] = molecular target: T1, human CCR8; assay: flow blocking, PBMC CCR8+CD3+; competitor PE-AB8
Protocol: as §1, §2, §3

human CCR8 [21] = molecular target: T1, human CCR8; assay: flow blocking, PBMC CCR8+CD4+; competitor PE-AB4
Protocol: as §1, §2, §3

human CCR8 [22] = molecular target: T1, human CCR8; assay: flow blocking, PBMC CCR8+CD3+; competitor PE-AB7
Protocol: as §1, §2, §3

human CCR8 [23] = molecular target: T1, human CCR8; assay: flow blocking, PBMC CCR8+CD3+; competitor PE-AB10
Protocol: as §1, §2, §3

human CCR8 [24] = molecular target: T1, human CCR8; assay: flow blocking, PBMC CCR8+CD4+; competitor PE-AB1
Protocol: as §1, §2, §3

human CCR8 [25] = molecular target: T1, human CCR8; assay: flow blocking, PBMC CCR8+CD3+; competitor PE-AB14
Protocol: as §1, §2, §3

T1 sequence (P51685 whole entry): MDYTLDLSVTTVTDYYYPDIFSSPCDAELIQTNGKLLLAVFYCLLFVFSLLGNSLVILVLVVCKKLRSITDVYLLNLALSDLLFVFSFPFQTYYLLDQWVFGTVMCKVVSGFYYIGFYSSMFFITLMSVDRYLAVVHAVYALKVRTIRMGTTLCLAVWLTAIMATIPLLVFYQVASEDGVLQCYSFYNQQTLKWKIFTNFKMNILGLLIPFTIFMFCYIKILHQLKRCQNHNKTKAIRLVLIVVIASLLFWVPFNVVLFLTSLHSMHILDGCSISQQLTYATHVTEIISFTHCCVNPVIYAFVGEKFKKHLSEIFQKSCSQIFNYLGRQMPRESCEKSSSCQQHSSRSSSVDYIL

% Blocking (human CCR8 [1]): -11.3%
MFI (human CCR8 [1]): 1140
% Blocking (human CCR8 [2]): -1.63%
MFI (human CCR8 [2]): 873
% Blocking (human CCR8 [3]): 91.1%
% Positive cells (human CCR8 [3]): 0.18%
% Blocking (human CCR8 [4]): -29.5%
% Positive cells (human CCR8 [4]): 1.67%
% Blocking (human CCR8 [5]): 14.8%
MFI (human CCR8 [5]): 840
% Blocking (human CCR8 [6]): -9.7%
MFI (human CCR8 [6]): 1020
% Blocking (human CCR8 [7]): -7.01%
MFI (human CCR8 [7]): 947
% Blocking (human CCR8 [8]): -6.12%
% Positive cells (human CCR8 [8]): 2.08%
% Blocking (human CCR8 [9]): 37.3%
MFI (human CCR8 [9]): 579
% Blocking (human CCR8 [10]): 27.8%
% Positive cells (human CCR8 [10]): 1.43%
% Blocking (human CCR8 [11]): 95.9%
% Positive cells (human CCR8 [11]): 0.07%
% Blocking (human CCR8 [12]): -14.2%
MFI (human CCR8 [12]): 769
% Blocking (human CCR8 [13]): -25.4%
% Positive cells (human CCR8 [13]): 1.63%
% Blocking (human CCR8 [14]): 0%
% Positive cells (human CCR8 [14]): 1.8%
% Blocking (human CCR8 [15]): 95.5%
% Positive cells (human CCR8 [15]): 0.09%
% Blocking (human CCR8 [16]): 98.8%
% Positive cells (human CCR8 [16]): 0.02%
% Blocking (human CCR8 [17]): -5.58%
MFI (human CCR8 [17]): 936
% Blocking (human CCR8 [18]): 12.5%
% Positive cells (human CCR8 [18]): 1.54%
% Blocking (human CCR8 [19]): 5.41%
% Positive cells (human CCR8 [19]): 1.4%
% Blocking (human CCR8 [20]): 5.47%
MFI (human CCR8 [20]): 1120
% Blocking (human CCR8 [21]): 93.3%
% Positive cells (human CCR8 [21]): 0.12%
% Blocking (human CCR8 [22]): -3.38%
MFI (human CCR8 [22]): 1210
% Blocking (human CCR8 [23]): -20.7%
MFI (human CCR8 [23]): 962
% Blocking (human CCR8 [24]): 72.3%
% Positive cells (human CCR8 [24]): 0.43%
% Blocking (human CCR8 [25]): 0.46%
MFI (human CCR8 [25]): 860
B1: AB5 (antibody, V domains shown)
VH: QVQLKESGPGLVQPSQTLSLTCTVSGFSLTSYHVSWVRQPPGKGLEWMGVIWTGGSTTYNSLLKSRLSISRDISKSQVFLKMNSLQTEDTATYYCARGGTVVKGGFAYWGQGTLVTVSS
VL: DIQMTQSPASLSASLEEIVTITCQASQDIGNRLSWYQQKPGKSPQLLIYGATSLADGVPSRFSGSRSGTQYSLKISRLQVEDIGIYYCLQAYSTPLTFGSGTKLEIK
notes: Hybridoma monoclonal; Same VH/VL entries as AB6; also called antibody 5; clone 5

% Blocking (human CCR8 [1]): -3.13%
MFI (human CCR8 [1]): 1050
% Blocking (human CCR8 [2]): 13.3%
MFI (human CCR8 [2]): 745
% Blocking (human CCR8 [5]): 0.71%
MFI (human CCR8 [5]): 979
% Blocking (human CCR8 [6]): -18.3%
MFI (human CCR8 [6]): 1100
% Blocking (human CCR8 [7]): 2.54%
MFI (human CCR8 [7]): 862
% Blocking (human CCR8 [9]): -4.93%
MFI (human CCR8 [9]): 969
% Blocking (human CCR8 [12]): -16.3%
MFI (human CCR8 [12]): 783
% Blocking (human CCR8 [17]): 10.7%
MFI (human CCR8 [17]): 792
% Blocking (human CCR8 [20]): 33.8%
MFI (human CCR8 [20]): 787
% Blocking (human CCR8 [22]): 32.7%
MFI (human CCR8 [22]): 786
% Blocking (human CCR8 [23]): -11.6%
MFI (human CCR8 [23]): 890
% Blocking (human CCR8 [25]): 3.88%
MFI (human CCR8 [25]): 831
B2: AB6 (antibody, V domains shown)
VH: QVQLKESGPGLVQPSQTLSLTCTVSGFSLTSYHVSWVRQPPGKGLEWMGVIWTGGSTTYNSLLKSRLSISRDISKSQVFLKMNSLQTEDTATYYCARGGTVVKGGFAYWGQGTLVTVSS
VL: DIQMTQSPASLSASLEEIVTITCQASQDIGNRLSWYQQKPGKSPQLLIYGATSLADGVPSRFSGSRSGTQYSLKISRLQVEDIGIYYCLQAYSTPLTFGSGTKLEIK
notes: Hybridoma monoclonal; Same VH/VL entries as AB5; also called antibody 6; clone 6
